Assay results: US20210338809A1, “Immune Tolerance-Inducing Agent and Therapeutic or Prophylactic Agent for Allergic Disorder” (Tokushima University, priority 2018, published 2021)

How the values were obtained:
[1] = tested on: casein transdermally sensitized mice; assay: Anaphylaxis-eliciting test by intraperitoneal challenge with casein after prophylactic immunization and casein transdermal sensitization; type: in vivo, mouse; conditions: subcutaneous injection 1 μg casein twice before sensitization
[2] = tested on: OVA transdermally sensitized model mice; assay: Anaphylaxis-eliciting test using aspirin pre-administration and oral OVA challenge, rectal temperature monitoring; type: in vivo, mouse; conditions: for change in rectal temperature: from 30 minutes after challenge
Experimental: Balb/c mice (6-7 weeks old, female) were subjected to hair removal on the back of the head with hair clippers, then, 100 μL of aqueous SDS solution (4%) was uniformly applied to damage their skin barrier function, and after 10 minutes, 100 μL of an aqueous solution of ovomucoid (OVM) (manufactured by NACALAI TESQUE, INC.) (10 mg/mL), 100 μL of an aqueous solution of ovalbumin (OVA) (manufactured by Sigma-Aldrich) (10 mg/mL), or 100 μL of an aqueous solution of casein (manufactured by Sigma-Aldrich) (10 mg/mL) was uniformly applied. Such allergen applications were carried out a total of 10 times (for 2 weeks with a frequency of 5 times/week) to generate a transdermally sensitized food allergic mouse model against OVM, OVA, or casein. The mice 10-14 days after transdermal sensitization were subjected to the following experiments.
In accordance with the schedule shown in FIG. 1, the present inventors performed two types of loadings of “ASA pre-administration” and “allergen oral administration” in combination on the allergen transdermally sensitized mouse model of the present invention to examine whether anaphylaxis could be reliably elicited. Experimental procedures and results are shown in the following (1) to (4).
The OVA transdermally sensitized model mice (body weight of about 20 g) of the present invention were fasted for 2 hours or more and then oral administration of ASA (manufactured by Sigma-Aldrich) dissolved in 50% ethanol (1.25 mg/100 μL/mouse) was performed. Also, as a control, a group was provided to which oral pre-administration of 50% ethanol alone without ASA was performed.
Thirty minutes after the pre-administration of ASA or ethanol, an aqueous OVA solution (manufactured by Sigma-Aldrich) was orally challenged (20 mg/100 μL/mouse). In addition, as a control, a group was provided to which only water (without OVA) was orally administered.
In this experiment, rectal temperatures were measured at 10-minute intervals starting from 10 minutes before OVA administration and for 90 to 120 minutes after administration. Then, the temperature change after OVA administration was monitored using the temperature 10 minutes before OVA administration as a reference value. It was determined that the mouse developed anaphylaxis when the rectal temperature decreased by 1° C. or more relative to the reference value.

[3] = tested on: transdermally sensitized OVM allergic mouse model; assay: Anaphylaxis-eliciting test with trace amount of OVM alone; type: in vivo
Experimental: Specifically, the transdermally sensitized OVM allergic mouse model (body weight of about 20 g, n=10) was subjected to fasting and ASA administration before the challenge test in accordance with the procedures of Example 2. Then an oral OVM challenge test was performed. The oral OVM challenge test was performed by orally challenging with 0.01 μg of OVM once and examining change in rectal temperature for 60 minutes.

Molecule: casein
- rectal temperature decrease in the other four cases [1]: worsening tendency
- improvement of rectal temperature decrease after intraperitoneal challenge test ([1]; n=5): only one case

Molecule: CC(=O)Oc1ccccc1C(=O)O [ASA/50% ethanol, acetylsalicylic acid, reference compound]
- change in rectal temperature [2]: tendency of increase

B1: ovalbumin (protein, UniProt P01012 2-386, looked up)
Ovalbumin: GSIGAASMEFCFDVFKELKVHHANENIFYCPIAIMSALAMVYLGAKDSTRTQINKVVRFDKLPGFGDSIEAQCGTSVNVHSSLRDILNQITKPNDVYSFSLASRLYAEERYPILPEYLQCVKELYRGGLEPINFQTAADQARELINSWVESQTNGIIRNVLQPSSVDSQTAMVLVNAIVFKGLWEKAFKDEDTQAMPFRVTEQESKPVQMMYQIGLFRVASMASEKMKILELPFASGTMSMLVLLPDEVSGLEQLESIINFEKLTEWTSSNVMEERKIKVYLPRMKMEEKYNLTSVLMAMGITDVFSSSANLSGISSAESLKISQAVHAAHAEINEAGREVVGSAEAGVDAASVSEEFRADHPFLFCIKHIATNAVLFFGRCVSP
notes: ovalbumin, egg allergen
- decrease in rectal temperature ([2]; 10 minutes after oral OVA challenge): around 1.1 °C
- elicitation of anaphylaxis ([2]; oral OVA challenge 20 mg/mouse): extremely mild

B2: 50% ethanol+OVA: 50% ethanol alone pre-administered, followed by oral OVA challenge (protein, UniProt P01012 2-386, looked up)
Ovalbumin: GSIGAASMEFCFDVFKELKVHHANENIFYCPIAIMSALAMVYLGAKDSTRTQINKVVRFDKLPGFGDSIEAQCGTSVNVHSSLRDILNQITKPNDVYSFSLASRLYAEERYPILPEYLQCVKELYRGGLEPINFQTAADQARELINSWVESQTNGIIRNVLQPSSVDSQTAMVLVNAIVFKGLWEKAFKDEDTQAMPFRVTEQESKPVQMMYQIGLFRVASMASEKMKILELPFASGTMSMLVLLPDEVSGLEQLESIINFEKLTEWTSSNVMEERKIKVYLPRMKMEEKYNLTSVLMAMGITDVFSSSANLSGISSAESLKISQAVHAAHAEINEAGREVVGSAEAGVDAASVSEEFRADHPFLFCIKHIATNAVLFFGRCVSP
modifications: after 50% ethanol pretreatment
- change in rectal temperature [2]: increase

B3: ovomucoid (protein, UniProt P01005 25-210, looked up)
Ovomucoid: AEVDCSRFPNATDKEGKDVLVCNKDLRPICGTDGVTYTNDCLLCAYSIEFGTNISKEHDGECKETVPMNCSSYANTTSEDGKVMVLCNRAFNPVCGTDGVTYDNECLLCAHKVEQGASVDKRHDGGCRKELAAVSVDCSEYPKPDCTAEDRPLCGSDNKTYGNKCNFCNAVVESNGTLTLSHFGKC
- induction of anaphylaxis ([3]; 0.01 μg OVM alone orally): does not induce anaphylaxis
- rectal temperature after administration ([3]; 0.01 μg OVM alone orally once, 60 minutes, n=10, ASA pre-administered): did not decrease
